In patent US20170306033A1 (Amgen, published 2017):

T1: human PAC1 receptor (human, UniProt P41586 21-468)
T1 sequence: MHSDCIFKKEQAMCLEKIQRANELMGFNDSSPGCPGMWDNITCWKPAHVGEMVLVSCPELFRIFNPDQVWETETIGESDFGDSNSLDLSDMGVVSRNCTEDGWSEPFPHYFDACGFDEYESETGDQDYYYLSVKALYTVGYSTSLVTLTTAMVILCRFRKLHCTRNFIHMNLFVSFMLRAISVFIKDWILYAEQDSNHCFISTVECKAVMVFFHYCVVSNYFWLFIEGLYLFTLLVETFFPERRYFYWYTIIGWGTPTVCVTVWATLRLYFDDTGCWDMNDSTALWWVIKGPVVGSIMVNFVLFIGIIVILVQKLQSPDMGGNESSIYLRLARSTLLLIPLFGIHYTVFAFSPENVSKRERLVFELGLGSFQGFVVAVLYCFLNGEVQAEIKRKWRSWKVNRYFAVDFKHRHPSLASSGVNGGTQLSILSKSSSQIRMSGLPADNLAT


Experiments:
human CGRP receptor = human CGRP receptor (human, UniProt Q16602 23-461; O60894 27-148); experiment: cell-based or functional assay
human PAC1 receptor = biological target: T1, human PAC1 receptor; experiment: cell-based or functional assay

Chain of human CGRP receptor (Q16602 23-461 limits assumed, chain 1 of 2): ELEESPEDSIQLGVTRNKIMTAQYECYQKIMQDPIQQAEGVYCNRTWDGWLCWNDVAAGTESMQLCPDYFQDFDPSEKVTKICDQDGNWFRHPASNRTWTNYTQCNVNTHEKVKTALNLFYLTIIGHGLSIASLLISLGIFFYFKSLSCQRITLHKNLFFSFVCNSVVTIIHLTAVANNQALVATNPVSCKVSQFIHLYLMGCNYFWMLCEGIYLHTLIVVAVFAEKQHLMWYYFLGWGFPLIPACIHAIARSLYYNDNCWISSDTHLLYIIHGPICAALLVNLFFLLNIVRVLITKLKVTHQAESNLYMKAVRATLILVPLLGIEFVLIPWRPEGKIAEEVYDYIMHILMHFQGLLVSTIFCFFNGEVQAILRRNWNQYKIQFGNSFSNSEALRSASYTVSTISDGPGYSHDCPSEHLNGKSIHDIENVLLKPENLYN
Chain of human CGRP receptor (O60894 27-148 limits assumed, chain 2 of 2): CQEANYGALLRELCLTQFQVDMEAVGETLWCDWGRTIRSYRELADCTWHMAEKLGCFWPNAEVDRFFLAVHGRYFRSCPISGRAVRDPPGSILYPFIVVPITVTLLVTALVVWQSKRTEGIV

| % inhibition of human CGRPR (human CGRP receptor) | % inhibition of human PAC1 (human PAC1 receptor) | Binder |
| --- | --- | --- |
| 67% | 59% | iPS:326645 (bispecific antibody, human IgG2, kappa, lambda) light 1: not shown heavy 1: QVQLQESGPGLVKPSQTLSLTCTVSGGSISSGGYYWSWIRQHPGKGLEWIGYIYYSGNTYYNPSLKSRVTISGDTSKNQFSLKLRSVTAADTAVYYCTRGGAARGMDVWGQGTTVTVSSASTKGPSVFPLAPCSRSTSESTAALGCLVKDYFPEPVTVSWNSGALTSGVHTFPAVLQSSGLYSLKSVVTVPSSNFGTQTYTCNVDHKPSNTKVDKTVERKCCVECPPCPAPPVAGPSVFLFPPKPKDTLMISRTPEVTCVVVDVSHEDPEVQFNWYVDGVEVHNAKTKPREEQFNSTFRVVSVLTVVHQDWLNGKEYKCKVSNKGLPAPIEKTISKTKGQPREPQVYTLPPSREEMTKNQVSLTCLVDGFYPSDIAVEWESNGQPENNYDTTPPMLDSDGSFFLYSDLTVDKSRWQQGNVFSCSVMHEALHNHYTQKSLSLSPGK light 2: not shown heavy 2: not shown |
| 66% | 23% | iPS:326651 (bispecific antibody, human IgG2, kappa, lambda) light 1: not shown heavy 1: QVQLQESGPGLVKPSQTLSLTCTVSGGSISSGGYYWSWIRQHPGKGLEWIGYIYYSGNTYYNPSLKSRVTISGDTSKNQFSLKLRSVTAADTAVYYCTRGGAARGMDVWGQGTTVTVSSASTKGPSVFPLAPCSRSTSESTAALGCLVKDYFPEPVTVSWNSGALTSGVHTFPAVLQSSGLYSLKSVVTVPSSNFGTQTYTCNVDHKPSNTKVDKTVERKCCVECPPCPAPPVAGPSVFLFPPKPKDTLMISRTPEVTCVVVDVSHEDPEVQFNWYVDGVEVHNAKTKPREEQFNSTFRVVSVLTVVHQDWLNGKEYKCKVSNKGLPAPIEKTISKTKGQPREPQVYTLPPSREEMTKNQVSLTCLVDGFYPSDIAVEWESNGQPENNYDTTPPMLDSDGSFFLYSDLTVDKSRWQQGNVFSCSVMHEALHNHYTQKSLSLSPGK light 2: not shown heavy 2: not shown |
| 87% | 28% | iPS:327896 (bispecific antibody, human IgG1, kappa, lambda, N297G) light 1: DIQMTQSPSSLSASVGDRITITCRASQSISRYLNWYQQKPGKAPKLLIYAASSLQSGIPSRFSGSGSGTDFTLTINSLQPEDFATYFCQQSYSPPFTFGQGTKVDIKRTVAAPSVFIFPPSDEQLKSGTASVVCLLNNFYPREAKVQWKVDNALQSGNSQESVTEQDSKDSTYSLESTLTLSKADYEKHKVYACEVTHQGLSSPVTKSFNRGEC heavy 1: not shown light 2: QSVLTQPPSVSAAPGQKVTISCSGSSSNIGNNYVSWYQQLPGTAPKLLIYDNNKRPSGIPDRFSGSKSGTSATLGITGLQTGDEADYYCGTWDSRLSAVVFGGGTKLTVLGQPKANPTVTLFPPSSEELQANKATLVCLISDFYPGAVTVAWKADGSPVKAGVETTKPSKQSNNKYAAKSYLSLTPEQWKSHRSYSCQVTHEGSTVEKTVAPTECS heavy 2: QVQLVESGGGVVQPGRSLRLSCAASGFTFSSFGMHWVRQAPGKGLEWVAVISFDGSIKYSVDSVKGRFTISRDNSKNTLFLQMNSLRAEDTAVYYCARDRLNYYESSGYYHYKYYGMAVWGQGTTVTVSSASTKGPSVFPLAPSSKSTSGGTAALGCLVKDYFPEPVTVSWNSGALTSGVHTFPAVLQSSGLYSLESVVTVPSSSLGTQTYICNVNHKPSNTKVDKKVEPKSCDKTHTCPPCPAPELLGGPSVFLFPPKPKDTLMISRTPEVTCVVVDVSHEDPEVKFNWYVDGVEVHNAKTKPCEEQYGSTYRCVSVLTVLHQDWLNGKEYKCKVSNKALPAPIEKTISKAKGQPREPQVYTLPPSRKKMTKNQVSLTCLVKGFYPSDIAVEWESNGQPENNYKTTPPVLKSDGSFFLYSKLTVDKSRWQQGNVFSCSVMHEALHNHYTQKSLSLSPGK |
| 80% | 12% | iPS:327897 (bispecific antibody, human IgG1, kappa, lambda, N297G) light 1: not shown heavy 1: not shown light 2: QSVLTQPPSVSAAPGQKVTISCSGSSSNIGNNYVSWYQQLPGTAPKLLIYDNNKRPSGIPDRFSGSKSGTSATLGITGLQTGDEADYYCGTWDSRLSAVVFGGGTKLTVLGQPKANPTVTLFPPSSEELQANKATLVCLISDFYPGAVTVAWKADGSPVKAGVETTKPSKQSNNKYAAKSYLSLTPEQWKSHRSYSCQVTHEGSTVEKTVAPTECS heavy 2: QVQLVESGGGVVQPGRSLRLSCAASGFTFSSFGMHWVRQAPGKGLEWVAVISFDGSIKYSVDSVKGRFTISRDNSKNTLFLQMNSLRAEDTAVYYCARDRLNYYESSGYYHYKYYGMAVWGQGTTVTVSSASTKGPSVFPLAPSSKSTSGGTAALGCLVKDYFPEPVTVSWNSGALTSGVHTFPAVLQSSGLYSLESVVTVPSSSLGTQTYICNVNHKPSNTKVDKKVEPKSCDKTHTCPPCPAPELLGGPSVFLFPPKPKDTLMISRTPEVTCVVVDVSHEDPEVKFNWYVDGVEVHNAKTKPCEEQYGSTYRCVSVLTVLHQDWLNGKEYKCKVSNKALPAPIEKTISKAKGQPREPQVYTLPPSRKKMTKNQVSLTCLVKGFYPSDIAVEWESNGQPENNYKTTPPVLKSDGSFFLYSKLTVDKSRWQQGNVFSCSVMHEALHNHYTQKSLSLSPGK |
| 83% | 9% | iPS:327889 (bispecific antibody, human IgG1, kappa, lambda, N297G) light 1: not shown heavy 1: not shown light 2: QSVLTQPPSVSAAPGQKVTISCSGSSSNIGNNYVSWYQQLPGTAPKLLIYDNNKRPSGIPDRFSGSKSGTSATLAITGLQTGDEADYYCGTWDSRLSAVVFGGGTKLTVLGQPKANPTVTLFPPSSEELQANKATLVCLISDFYPGAVTVAWKADGSPVKAGVETTKPSKQSNNKYAAKSYLSLTPEQWKSHRSYSCQVTHEGSTVEKTVAPTECS heavy 2: QVQLVESGGGVVQPGRSLRLSCAASGFTFSSFGMHWVRQAPGKGLEWVAVISFDGSIKYSVDSVKGRFTISRDNSKNTLFLQMNSLRAEDTAVYYCARDRLNYYDSSGYYHYKYYGMAVWGQGTTVTVSSASTKGPSVFPLAPSSKSTSGGTAALGCLVKDYFPEPVTVSWNSGALTSGVHTFPAVLQSSGLYSLESVVTVPSSSLGTQTYICNVNHKPSNTKVDKKVEPKSCDKTHTCPPCPAPELLGGPSVFLFPPKPKDTLMISRTPEVTCVVVDVSHEDPEVKFNWYVDGVEVHNAKTKPCEEQYGSTYRCVSVLTVLHQDWLNGKEYKCKVSNKALPAPIEKTISKAKGQPREPQVYTLPPSRKEMTKNQVSLTCLVKGFYPSDIAVEWESNGQPENNYKTTPPVLKSDGSFFLYSKLTVDKSRWQQGNVFSCSVMHEALHNHYTQKSLSLSPGK |
| 87% | 35% | iPS:327887 (bispecific antibody, human IgG1, kappa, lambda, N297G) light 1: not shown heavy 1: not shown light 2: QSVLTQPPSVSAAPGQKVTISCSGSSSNIGNNYVSWYQQLPGTAPKLLIYDNNKRPSGIPDRFSGSKSGTSATLGITGLQTGDEADYYCGTWDSRLSAVVFGGGTKLTVLGQPKANPTVTLFPPSSEELQANKATLVCLISDFYPGAVTVAWKADGSPVKAGVETTKPSKQSNNKYAAKSYLSLTPEQWKSHRSYSCQVTHEGSTVEKTVAPTECS heavy 2: QVQLVESGGGVVQPGRSLRLSCAASGFTFSSFGMHWVRQAPGKGLEWVAVISFDGSIKYSVDSVKGRFTISRDNSKNTLFLQMNSLRAEDTAVYYCARDRLNYYDSSGYYHYKYYGMAVWGQGTTVTVSSASTKGPSVFPLAPSSKSTSGGTAALGCLVKDYFPEPVTVSWNSGALTSGVHTFPAVLQSSGLYSLESVVTVPSSSLGTQTYICNVNHKPSNTKVDKKVEPKSCDKTHTCPPCPAPELLGGPSVFLFPPKPKDTLMISRTPEVTCVVVDVSHEDPEVKFNWYVDGVEVHNAKTKPCEEQYGSTYRCVSVLTVLHQDWLNGKEYKCKVSNKALPAPIEKTISKAKGQPREPQVYTLPPSRKKMTKNQVSLTCLVKGFYPSDIAVEWESNGQPENNYKTTPPVLKSDGSFFLYSKLTVDKSRWQQGNVFSCSVMHEALHNHYTQKSLSLSPGK |
| 83% | 56% | iPS:327888 (bispecific antibody, human IgG1, kappa, lambda, N297G) light 1: DIQMTQSPSSLSASVGDRITITCRASQSISRYLNWYQQKPGKAPKLLIYAASSLQSGIPSRFSGSGSGTDFTLTINSLQPEDFATYFCQQSYSPPFTFGQGTKVDIKRTVAAPSVFIFPPSDEQLKSGTASVVCLLNNFYPREAKVQWKVDNALQSGNSQESVTEQDSKDSTYSLESTLTLSKADYEKHKVYACEVTHQGLSSPVTKSFNRGEC heavy 1: not shown light 2: QSVLTQPPSVSAAPGQKVTISCSGSSSNIGNNYVSWYQQLPGTAPKLLIYDNNKRPSGIPDRFSGSKSGTSATLAITGLQTGDEADYYCGTWDSRLSAVVFGGGTKLTVLGQPKANPTVTLFPPSSEELQANKATLVCLISDFYPGAVTVAWKADGSPVKAGVETTKPSKQSNNKYAAKSYLSLTPEQWKSHRSYSCQVTHEGSTVEKTVAPTECS heavy 2: QVQLVESGGGVVQPGRSLRLSCAASGFTFSSFGMHWVRQAPGKGLEWVAVISFDGSIKYSVDSVKGRFTISRDNSKNTLFLQMNSLRAEDTAVYYCARDRLNYYDSSGYYHYKYYGMAVWGQGTTVTVSSASTKGPSVFPLAPSSKSTSGGTAALGCLVKDYFPEPVTVSWNSGALTSGVHTFPAVLQSSGLYSLESVVTVPSSSLGTQTYICNVNHKPSNTKVDKKVEPKSCDKTHTCPPCPAPELLGGPSVFLFPPKPKDTLMISRTPEVTCVVVDVSHEDPEVKFNWYVDGVEVHNAKTKPCEEQYGSTYRCVSVLTVLHQDWLNGKEYKCKVSNKALPAPIEKTISKAKGQPREPQVYTLPPSRKEMTKNQVSLTCLVKGFYPSDIAVEWESNGQPENNYKTTPPVLKSDGSFFLYSKLTVDKSRWQQGNVFSCSVMHEALHNHYTQKSLSLSPGK |
| 75% | 27% | iPS:328031 (bispecific antibody, human IgG1, kappa, N297G) light 1: DIQMTQSPSSLSASVGDRITITCRASQSISRYLNWYQQKPGKAPKLLIYAASSLQSGIPSRFSGSGSGTDFTLTINSLQPEDFATYFCQQSYSPPFTFGQGTKVDIKRTVAAPSVFIFPPSDEQLKSGTASVVCLLNNFYPREAKVQWKVDNALQSGNSQESVTEQDSKDSTYSLESTLTLSKADYEKHKVYACEVTHQGLSSPVTKSFNRGEC heavy 1: not shown light 2: EIVLTQSPGTLSLSPGERATLSCRASQSVSSGYLTWYQQKPGQAPRLLIYGASSRATGIPDRFSGSGSGTDFTLTISRLEPEDFAVYYCQQYGNSLSRFGQGTKLEIKRTVAAPSVFIFPPSDEQLKSGTASVVCLLNNFYPREAKVQWKVDNALQSGNSQESVTEQDSKDSTYSLKSTLTLSKADYEKHKVYACEVTHQGLSSPVTKSFNRGEC heavy 2: not shown |
| 82% | 20% | iPS:328033 (bispecific antibody, human IgG1, kappa, N297G) light 1: not shown heavy 1: not shown light 2: EIVLTQSPGTLSLSPGERATLSCRASQSVSSGYLTWYQQKPGQAPRLLIYGASSRATGIPDRFSGSGSGTDFTLTISRLEPEDFAVYYCQQYGNSLSRFGQGTKLEIKRTVAAPSVFIFPPSDEQLKSGTASVVCLLNNFYPREAKVQWKVDNALQSGNSQESVTEQDSKDSTYSLKSTLTLSKADYEKHKVYACEVTHQGLSSPVTKSFNRGEC heavy 2: not shown |
